Reference: patent US20050019758A1 (GlaxoSmithKline, published 2005)
Where “and” joins values, the source holds several entries; their conditions need not be identical. Equal values may be shown once. Read-outs that look alike come from different tables or passages of the source.

What was measured:
[1] = target: T1, F protein of RS Long strain virus (native form, on virus and infected VERO cells) (Respiratory Syncytial Virus, UniProt P12568 26-574); assay: cell-based or functional assay
[2] = target: T1, F protein of RS Long strain virus …; assay: cell-based or functional assay; remark: listed apart in the source
[3] = target: T1, F protein of RS Long strain virus …; assay: cell-based or functional assay; remark: listed apart in the source
[4] = target: T1, F protein of RS Long strain virus …; assay: ELISA on methanol-fixed VERO cells infected with RS Long virus, biotinylated mAb 19B, HRP-streptavidin

T1 sequence (P12568 26-574): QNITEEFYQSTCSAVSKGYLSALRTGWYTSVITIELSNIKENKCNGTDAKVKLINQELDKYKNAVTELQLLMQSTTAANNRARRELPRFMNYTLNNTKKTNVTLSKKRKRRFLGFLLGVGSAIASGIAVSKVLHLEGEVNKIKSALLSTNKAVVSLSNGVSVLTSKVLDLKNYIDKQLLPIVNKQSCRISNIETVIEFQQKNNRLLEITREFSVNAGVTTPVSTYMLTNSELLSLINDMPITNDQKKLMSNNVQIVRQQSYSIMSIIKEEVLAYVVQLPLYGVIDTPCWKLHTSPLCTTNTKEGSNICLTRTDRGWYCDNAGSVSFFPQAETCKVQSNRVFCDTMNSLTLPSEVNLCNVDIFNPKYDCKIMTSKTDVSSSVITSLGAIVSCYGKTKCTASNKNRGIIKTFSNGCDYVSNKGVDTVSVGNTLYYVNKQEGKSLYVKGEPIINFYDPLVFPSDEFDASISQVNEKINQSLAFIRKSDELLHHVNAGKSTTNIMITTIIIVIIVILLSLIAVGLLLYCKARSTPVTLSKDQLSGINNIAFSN

| Binder | Fusion-Inhibition EC50 [1] | Fusion-Inhibition Titer EC50 [3] | also measured |
| --- | --- | --- | --- |
| Fab19 (Fab) VH: EVQLLEVESGGGLRPGGSLRLSCAASGTTLSGYTMHWVRQAPGKGLEWVSSITGGSNFINYSDSVKGRFTISRDNAKNSLYLQMNSLTAEDTAVYYCATAPIAPPYFDHWGQGTLVTVSS light: ELTQSPSSLSASVGDRVTITCRATQSVSNFLNWYQQKPGEAPTLLIYDASTSQSGVPSRFSGSGSGMDFSLTISSLQPEDLAMYYCQASINTPLFGGGTRIDMRR | 0.22 ug/ml and 4.4 nM | – | Neutralization EC50 [1]: 0.34 µg/mL |
| mAb 19A (antibody, human IgG1) VH: EVQLLEVESGGGLRPGGSLRLSCAASGTTLSGYTMHWVRQAPGKGLEWVSSITGGSNFINYSDSVKGRFTISRDNAKNSLYLQMNSLTAEDTAVYYCATAPIAPPYFDHWGQGTLVTVSS light: ELTQSPSSLSASVGDRVTITCRATQSVSNFLNWYQQKPGEAPTLLIYDASTSQSGVPSRFSGSGSGMDFSLTISSLQPEDLAMYYCQASINTPLFGGGTRIDMRR | 18.9 nM and 2.8 ug/ml | – | Neutralization EC50 [1]: 2.2 µg/mL |
| mAb 19B (antibody, human IgG1, N-linked carbohydrate at Asn59 in part of the molecules (glycovariant), Human IgG1, kappa; also called Hu19B; version B) VH: QVQLVVESGGGLRPGGSLRLSCAASGTTLSGYTMHWVRQAPGKGLEWVSSITGGSNFINYSDSVKGRFTISRDNAKNSLYLQMNSLTAEDTAVYYCATAPIAPPYFDHWGQGTLVTVSS light: DIQMTQSPSSLSASVGDRVTITCRATQSVSNFLNWYQQKPGEAPTLLIYDASTSQSGVPSRFSGSGSGMDFSLTISSLQPEDLAMYYCQASINTPLFGGGTRIDMRR | 2.3 ug/ml and 15.3 nM | 2.5 µg/mL | Fusion-Inhibition Titer EC50 [2]: 2.3 µg/mL; Neutralization EC50 [1]: 1.5 µg/mL; EC50 [4]: 0.034 µg/mL |
| mAb 19C (antibody, human IgG1) VH: QVQLVVESGGGLRPGGSLRLSCAASGTTLSGYTMHWVRQAPGKGLEWVSSITGGSNFINYADSVKGRFTISRDNAKNSLYLQMNSLTAEDTAVYYCATAPIAPPYFDHWGQGTLVTVSS light: not shown | 2.4 ug/ml and 16 nM | – | – |
| mAb 19D (antibody, human IgG1) VH: QVQLVVESGGGLRPGGSLRLSCAASGTTLSGYTMHWVRQAPGKGLEWVSSITGGSNFIQYSDSVKGRFTISRDNAKNSLYLQMNSLTAEDTAVYYCATAPIAPPYFDHWGQGTLVTVSS light: not shown | 2.6 ug/ml and 17.3 nM | – | – |
| mAb 19B Fraction A (<5% glycovariant) (antibody, human IgG1, N-linked carbohydrate at Asn59 in <5% of the preparation) VH: QVQLVVESGGGLRPGGSLRLSCAASGTTLSGYTMHWVRQAPGKGLEWVSSITGGSNFINYSDSVKGRFTISRDNAKNSLYLQMNSLTAEDTAVYYCATAPIAPPYFDHWGQGTLVTVSS light: DIQMNFLNWYQQKPGEAPTLLIYDASTSQSGVPSRFSGSGSGMDFSLTISSLQPEDLAMYYCQASINTPLFGGGTRIDMRR | – | 1.8 µg/mL | – |
| Fab19A (Fab) VH: EVQLLEVESGGGLRPGGSLRLSCAASGTTLSGYTMHWVRQAPGKGLEWVSSITGGSNFINYSDSVKGRFTISRDNAKNSLYLQMNSLTAEDTAVYYCATAPIAPPYFDHWGQGTLVTVSS light: ELTQSPSSLSASVGDRVTITCRATQSVSNFLNWYQQKPGEAPTLLIYDASTSQSGVPSRFSGSGSGMDFSLTISSLQPEDLAMYYCQASINTPLFGGGTRIDMRR | 0.16 ug/ml and 3 nM | – | – |
| mAb 19B Fraction B (40% glycovariant) (antibody, human IgG1, N-linked carbohydrate at Asn59 in 40% of the preparation) VH: QVQLVVESGGGLRPGGSLRLSCAASGTTLSGYTMHWVRQAPGKGLEWVSSITGGSNFINYSDSVKGRFTISRDNAKNSLYLQMNSLTAEDTAVYYCATAPIAPPYFDHWGQGTLVTVSS light: DIQMNFLNWYQQKPGEAPTLLIYDASTSQSGVPSRFSGSGSGMDFSLTISSLQPEDLAMYYCQASINTPLFGGGTRIDMRR | – | 3.8 µg/mL | – |
| Fab19B (Fab, N-linked carbohydrate at Asn59 in <10% of the preparation (Table 4)) VH: QVQLVVESGGGLRPGGSLRLSCAASGTTLSGYTMHWVRQAPGKGLEWVSSITGGSNFINYSDSVKGRFTISRDNAKNSLYLQMNSLTAEDTAVYYCATAPIAPPYFDHWGQGTLVTVSS light: DIQMNFLNWYQQKPGEAPTLLIYDASTSQSGVPSRFSGSGSGMDFSLTISSLQPEDLAMYYCQASINTPLFGGGTRIDMRR | 0.12 ug/ml and 2.4 nM | 0.12 µg/mL | – |
| Fab19B Fraction A (1% glycovariant) (Fab, N-linked carbohydrate at Asn59 in 1% of the preparation) VH: QVQLVVESGGGLRPGGSLRLSCAASGTTLSGYTMHWVRQAPGKGLEWVSSITGGSNFINYSDSVKGRFTISRDNAKNSLYLQMNSLTAEDTAVYYCATAPIAPPYFDHWGQGTLVTVSS light: DIQMNFLNWYQQKPGEAPTLLIYDASTSQSGVPSRFSGSGSGMDFSLTISSLQPEDLAMYYCQASINTPLFGGGTRIDMRR | – | 0.89 µg/mL | – |
| Fab19B Fraction B (94% glycovariant) (Fab, N-linked carbohydrate at Asn59 in 94% of the preparation) VH: QVQLVVESGGGLRPGGSLRLSCAASGTTLSGYTMHWVRQAPGKGLEWVSSITGGSNFINYSDSVKGRFTISRDNAKNSLYLQMNSLTAEDTAVYYCATAPIAPPYFDHWGQGTLVTVSS light: DIQMNFLNWYQQKPGEAPTLLIYDASTSQSGVPSRFSGSGSGMDFSLTISSLQPEDLAMYYCQASINTPLFGGGTRIDMRR | – | 1.5 µg/mL | – |
| Fab19B Fraction C (99% glycovariant) (Fab, N-linked carbohydrate at Asn59 in 99% of the preparation) VH: QVQLVVESGGGLRPGGSLRLSCAASGTTLSGYTMHWVRQAPGKGLEWVSSITGGSNFINYSDSVKGRFTISRDNAKNSLYLQMNSLTAEDTAVYYCATAPIAPPYFDHWGQGTLVTVSS light: DIQMNFLNWYQQKPGEAPTLLIYDASTSQSGVPSRFSGSGSGMDFSLTISSLQPEDLAMYYCQASINTPLFGGGTRIDMRR | – | 3.7 µg/mL | – |
